First the molecules themselves.
B1: R53A, Q6T418 (parent)
chain: MERKTFSFLFLLLLVLASDVAVERGEARTCMIKKEGWGKCLIDTTCAHSCKNRGYIGGNCKGMTRTCYCLVNC

In the data set the parent is B1. The settings on record: Vigna radiata; pH 7; 37 °C; GdnHCl; Fluorescence; Tris-HCl 10 mM; NaCl 100 mM; structure 1TI5; whole UniProt chain shown.
With MERKTFSFLFLLLLVLASDVAVERGEARTCMIKKEGWGKCLIDTTCAHSCKNAGYIGGNCKGMTRTCYCLVNC, the “denaturant midpoint (higher = more stable)” value (“denaturant midpoint” for short) is 2.76 M.

As to MERKTFSFLFLLLLVLASDVAVERGEARTCMIKKEGWGKCLADTTCAHSCKNRGYIGGNCKGMTRTCYCLVNC, the “denaturant midpoint” value stood at 3.87 M.

Regarding MERKTFSFLFLLLLVLASDVAVERGEARTCMAKKEGWGKCLIDTTCAHSCKNRGYIGGNCKGMTRTCYCLVNC, the “denaturant midpoint” value turned out to be 2.93 M.

MERKTFSFLFLLLLVLASDVAVERGEARTCMIKAEGWGKCLIDTTCAHSCKNRGYIGGNCKGMTRTCYCLVNC: the “denaturant midpoint” value was determined as 2.53 M.

Take MERKTFSFLFLLLLVLASDVAVERGEARTCMIKKEGWGKCLIDTTCAHACKNRGYIGGNCKGMTRTCYCLVNC: the “denaturant midpoint” value was determined as 2.84 M.

Regarding MERKTFSFLFLLLLVLASDVAVERGEARTCMIKKEGWGKCLIDTTCAHSCKNRGYIGGACKGMTRTCYCLVNC, the “denaturant midpoint” value stood at 2.64 M.

On to MERKTFSFLFLLLLVLASDVAVERGEARTCMIKKEGWGKCLIDTTCAHSCKNRGYIGGNCKGMTRTCACLVNC, for which the “denaturant midpoint” value came to 3.73 M.

In the case of MERKTFSFLFLLLLVLASDVAVERGEARTCMIKKEGWGKCLIDTTCAHSCKNRGYIGGNCAGMTRTCYCLVNC, the “denaturant midpoint” value came to 3.31 M.

With MERKTFSFLFLLLLVLASDVAVERGEARTCMIKKEGWGKCLIATTCAHSCKNRGYIGGNCKGMTRTCYCLVNC, the “denaturant midpoint” value is 2.96 M.

Turning to MERKTFSFLFLLLLVLASDVAVERGEARTCMIAKEGWGKCLIDTTCAHSCKNRGYIGGNCKGMTRTCYCLVNC, the “denaturant midpoint” value was 2.57 M.

Turning to MERKTFSFLFLLLLVLASDVAVERGEARTCMIKKEGWGKCLIDATCAHSCKNRGYIGGNCKGMTRTCYCLVNC, the “denaturant midpoint” value is 3.32 M.

In the case of MERKTFSFLFLLLLVLASDVAVERGEARTCMIKKEGWGKCLIDTTCAHSCKNRGYIGGNCKGMTATCYCLVNC, the “denaturant midpoint” value was 2.97 M.

Turning to MERKTFSFLFLLLLVLASDVAVERGEARTCMIKKEGWGACLIDTTCAHSCKNRGYIGGNCKGMTRTCYCLVNC, the “denaturant midpoint” value was 2.48 M.

MERKTFSFLFLLLLVLASDVAVERGEARTCMIKKEGWGKCLIDTTCAHSCKNRGYIAGNCKGMTRTCYCLVNC: the “denaturant midpoint” value is 3.26 M.

Consider MERKTFSFLFLLLLVLASDVAVERGEARTCMIKKEGWGKCLIDTTCAHSCKNRGAIGGNCKGMTRTCYCLVNC, for which the “denaturant midpoint” value amounted to 3.1 M.

MERKTFSFLFLLLLVLASDVAVERGEARTCAIKKEGWGKCLIDTTCAHSCKNRGYIGGNCKGMTRTCYCLVNC: the “denaturant midpoint” value is 3.66 M.

Regarding MERKTFSFLFLLLLVLASDVAVERGEARTCMIKKEGWGKCLIDTTCAHSCKNRGYIGGNCKAMTRTCYCLVNC, the “denaturant midpoint” value is 3.44 M.

Consider MERKTFSFLFLLLLVLASDVAVERGEARTCMIKKEAWGKCLIDTTCAHSCKNRGYIGGNCKGMTRTCYCLVNC, for which the “denaturant midpoint” value was 3.27 M.

Consider MERKTFSFLFLLLLVLASDVAVERGEARTCMIKKEGWGKCLIDTTCAASCKNRGYIGGNCKGMTRTCYCLVNC, for which the “denaturant midpoint” value came to 4.33 M.

As to MERKTFSFLFLLLLVLASDVAVERGEARTCMIKKEGWAKCLIDTTCAHSCKNRGYIGGNCKGMTRTCYCLVNC, the “denaturant midpoint” value amounted to 4.66 M.

In the case of MERKTFSFLFLLLLVLASDVAVERGEARTCMIKKEGWGKCLIDTACAHSCKNRGYIGGNCKGMTRTCYCLVNC, the “denaturant midpoint” value was determined as 4.5 M.

With MERKTFSFLFLLLLVLASDVAVERGEARTCMIKKEGWGKCLIDTTCAHSCKNRGYIGGNCKGMARTCYCLVNC, the “denaturant midpoint” value came to 2.98 M.

On to MERKTFSFLFLLLLVLASDVAVERGEARTCMIKKEGWGKCLIDTTCAHSCKNRGYIGGNCKGATRTCYCLVNC, for which the “denaturant midpoint” value was 3.88 M.

As for MERKTFSFLFLLLLVLASDVAVERGEARTCMIKKEGWGKCLIDTTCAHSCKNRGYAGGNCKGMTRTCYCLVNC, the “denaturant midpoint” value stood at 3.32 M.

For the variant MERKTFSFLFLLLLVLASDVAVERGEARTCMIKKEGWGKCLIDTTCAHSCANRGYIGGNCKGMTRTCYCLVNC, the “denaturant midpoint” value was found to be 2.81 M.

In the case of MERKTFSFLFLLLLVLASDVAVERGEARTAMIKKEGWGKCLIDTTCAHSCKNRGYIGGNCKGMTRTCYCLVNA, the “denaturant midpoint” value came out at 2.69 M.

Consider MERKTFSFLFLLLLVLASDVAVERGEAATCMIKKEGWGKCLIDTTCAHSCKNRGYIGGNCKGMTRTCYCLVNC, for which the “denaturant midpoint” value was 3.29 M.

Take MERKTFSFLFLLLLVLASDVAVERGEARTCMIKKEGWGKCLIDTTCAHSCKNRGYIGGNCKGMTRTCYCAVNC: the “denaturant midpoint” value came out at 4.69 M.

Take MERKTFSFLFLLLLVLASDVAVERGEARTCMIKKEGWGKCLIDTTCAHSCKARGYIGGNCKGMTRTCYCLVNC: the “denaturant midpoint” value was 3.49 M.

On to MERKTFSFLFLLLLVLASDVAVERGEARTCMIKKEGWGKCLIDTTCAHSCKNRGYIGGNCKGMTRTCYCLANC, for which the “denaturant midpoint” value worked out at 3.14 M.

As for MERKTFSFLFLLLLVLASDVAVERGEARTCMIKKEGWGKCLIDTTCAHSCKNRGYIGGNCKGMTRACYCLVNC, the “denaturant midpoint” value was 3.32 M.

Values taken from FireProtDB (doi:10.1002/pro.164).
